In the supplement of paper PMC10567573:
± gives the standard deviation.

Assay: protein stability index of a GFP-peptide fusion (GPS, HEK-293T) (PSI 1-6); higher = more stable
[1] = treatment: DMSO, c terminus: a fixed tail appended
[2] = treatment: MLN4924 1 uM, 8 h, c terminus: a fixed tail appended
[3] = treatment: DMSO, c terminus: native
[4] = treatment: MLN4924 1 uM, 8 h, c terminus: native
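Also: 24-mer peptide tiles fused after GFP, lentivirally expressed, FACS-sorted into six equal bins by GFP/DsRed ratio, decoded by Illumina sequencing, PSI is the read-weighted mean bin number.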

Sequence | protein stability index [1] | protein stability index [2] | protein stability index [3] | protein stability index [4]
KVLLSGATFLVTFGNSEKPETMTC [ZFYVE21] | 2.43 ± 0.27 | 2.23 ± 0.72 |  | 
KVPNHYIAIPEWFLSENATVAAET [CPXM2] | 3.22 ± 0.43 | 3.32 ± 0.47 |  | 
KVSQWWERLTKQEKRPLFLAPDFD [HACD3] | 2.34 ± 0.31 | 2.55 ± 0.089 |  | 
KYEKLRGDVAIKLKFLEENKIKVM [ARFIP2] | 2.22 ± 0.37 | 2.48 ± 0.27 |  | 
KYSYTSTSDDNLLKNIELFDKLAL [KCTD13] | 2.63 ± 0.42 | 2.59 ± 0.26 |  | 
LAEARRLFPGRVSVDLMLGLPAQQ [RSAD1] | 2.76 ± 0.25 | 2.7 ± 0.31 |  | 
LAFFPFLHRLFREKSLDQLKSISA [PHTF1] | 2.46 ± 0.3 | 2.26 ± 0.35 |  | 
LAIFKSGGIPALVKMLGSPVDSVL [CTNNB1] | 2.28 ± 0.36 | 2.14 ± 0.35 |  | 
LAKEIRVKAEPFIKWLKEAEEESS [EIF5] | 3.33 ± 0.2 | 3.9 ± 0.52 |  | 
LALDSGASLLHLAVEAGQEECAKW [RIPK4] | 3.73 ± 1.2 | 3.46 ± 0.4 |  | 
LAPGPAPTRCLPGHKEEEDGEGAG [ESRRA] | 5.45 ± 0.16 | 5.48 ± 0.081 |  | 
LAVFARCLAGCEGAHEQVDFKDFY [P3H4] | 1.94 ± 0.45 | 2.02 ± 0.31 |  | 
LDAHYHVKISDFGLAKCNGLSHSH [RIPK4] | 2.25 ± 0.31 | 2.48 ± 0.15 |  | 
LDNTKFRSHEGETAYIRVKVDGPR [SRSF1] | 3.73 ± 0.34 | 3.49 ± 0.32 |  | 
LDPMKNVTCENGLPAVVSCVPGQV [LOXL2] |  | 4.36 ± 0.06 |  | 
LEELTKLQNNCTSSITRQKKRLQE [TMEM120A] | 4.81 ± 0.3 | 4.76 ± 0.31 |  | 
LEIELQSQLSMKAGLENTVAETEC [KRT13] | 5.02 ± 0.43 | 5.03 ± 0.11 |  | 
LETSGNPNGRYGSGYLLASTPESE [SLC6A17] | 4.93 ± 0.14 | 4.91 ± 0.26 |  | 
LFGGFADFGSAAASGSFPSQVTAT [CLINT1] | 2.71 ± 0.37 | 3.02 ± 0.33 |  | 
LFHRLDEDWDSALFAELGYFTDTD [ATF6] | 2.91 ± 0.48 | 3.02 ± 0.26 |  | 
LFSSHPPLGGGVGGQDGLGAPKDQ [KLHL14] | 4.89 ± 0.55 | 4.81 ± 0.049 |  | 
LFVLFMFFGMAFNFIVNDSRKKPI [SOAT1] | 3.19 ± 0.45 | 2.99 ± 0.24 |  | 
LGEVAYHDYHGILVDEEEKVLIQK [ADD1] | 4.9 ± 0.15 | 4.74 ± 0.61 |  | 

Sequence | protein stability index [1] | protein stability index [2] | protein stability index [3] | protein stability index [4]
LGLNAAFWFFALTSLRLVFLLAFG [RETREG3] | 3.06 ± 0.41 | 3.35 ± 1.4 |  | 
LGRSIVSSPQGKSGPEAARAGGWV [PKD2L1] | 3.45 ± 0.2 | 3.83 ± 0.36 |  | 
LHPLLSGRLGRWLRSTRFSGSLDR [PCDHGC5] | 2.46 ± 0.23 | 2.45 ± 0.54 |  | 
LHRTEGELQKIVQAGDKDLDGQLD [SLC25A25] | 5.58 ± 0.21 | 5.55 ± 0.31 |  | 
LHSACGLSKDHQEVETEGPESADT [TOR1AIP2] | 5.36 ± 0.26 | 5.53 ± 0.16 |  | 
LIDRSGRHFGTILNYLRDGSVPLP [KCTD13] | 2.37 ± 0.28 | 2.46 ± 0.32 |  | 
LINYQDDAELATRAIPELTKLLND [CTNNB1] | 3.61 ± 0.37 | 3.59 ± 0.31 |  | 
LISNASDALDKIRYESLTDPSKLD [HSP90AB1] | 3.75 ± 0.34 | 3.85 ± 0.41 |  | 
LIVGRIAIGVSISLSSIATCVYIA [SLC2A12] | 3.09 ± 0.45 | 3.01 ± 0.39 |  | 
LKDGYRLDEIPDDEDLDLIPPKSV [FAM219A] | 5.16 ± 0.15 | 5.3 ± 0.13 |  | 
LKDTYASLGKTNVKDDELDAMLKE [MYL5] | 5.28 ± 0.21 | 5.35 ± 0.2 |  | 
LKIPQVRGMDLSWESRTGDQYSYS [LCOR] | 2.87 ± 0.25 | 2.86 ± 0.31 |  | 
LKKAKVQVERMREVNSRCYQPEPF [FBXO34] | 2.79 ± 0.61 | 2.84 ± 0.16 |  | 
LKLANHQRPVSRQVTCLRTQVLED [TRAF3IP2] | 3.49 ± 0.35 | 3.58 ± 0.27 |  | 
LKRAFEAANLPALVLKIMSGTFAP [NEK8] | 2.57 ± 0.59 | 2.71 ± 0.57 |  | 
LKSSILIAMAVYTYLRLIVDHHGT [INTS3] | 3.51 ± 0.21 | 3.11 ± 0.27 |  | 
LLADLKKCGDLECEALINRVSAMR [MIA2] | 2.53 ± 0.23 | 2.55 ± 0.32 |  | 
LLAEKEEKLQKEQKELQDVGQSLR [SASS6] | 5.45 ± 0.23 | 5.35 ± 0.28 |  | 
LLAIQFLEFFYGIATATEIAYYSY [SLC19A2] | 2.92 ± 1.3 | 3.13 ± 0.23 |  | 
LLERQVEMTPEKFSVLMEKLCKKG [FANCE] | 3.03 ± 0.26 | 3.36 ± 0.19 |  | 
LLIFGKELSAIGSDTTPLPSWAAL [SNX8] | 2.42 ± 0.37 | 2.13 ± 0.28 |  | 
LLKIHEVSTVSHADADCFVCVFLS [CASP6] | 2.4 ± 0.17 | 2.4 ± 0.41 |  | 
LLPRQPLPLGIKVYEDETKVVHAV [PALM] | 3.47 ± 0.28 | 3.48 ± 0.12 |  | 

Sequence | protein stability index [1] | protein stability index [2] | protein stability index [3] | protein stability index [4]
LLSTSLDAKDELEERLERCMSIVT [INTS3] | 3.38 ± 0.22 | 3.51 ± 0.37 |  | 
LLYDDLYDDDIDDEDEEEEDADCY [UBE2R2] | 4.26 ± 0.18 | 4.41 ± 0.27 |  | 
LNVRGGKPDDITVLLSIVAEYTD [PPTC7] |  |  | 3.45 ± 0.95 | 2.5 ± 0.44
LPAQPNRKPGMSSTARRSRAASSQ [CHMP4C] | 4.88 ± 0.16 | 4.87 ± 0.16 |  | 
LPLALYTATFAVHFMVLSKSGPGD [POMT2] | 3.34 ± 0.33 | 3.01 ± 0.61 |  | 
LPLTARWEYMHSPSENSKEAEILE [CPOX] | 4.94 ± 0.32 | 5.02 ± 0.17 |  | 
LPPPSAPSLQPSRKLSPTEPKNYG [SCAMP3] | 4.79 ± 0.16 | 4.86 ± 0.24 |  | 
LPPVSTSFTTGGLRIPFPRDCGEE [TNXB] | 4.62 ± 0.27 | 4.43 ± 0.18 |  | 
LPVASSSTLLPLAPSNSTSLNSTF [NFE2L1] | 3.89 ± 0.11 | 3.65 ± 0.24 |  | 
LPVYLKKDPAYFYGYVYFRQVRDK [DENND6A] | 2.59 ± 0.57 | 2.53 ± 0.47 |  | 
LQKQGKYSGVGLLDHMVSIYLLI [RNF180] |  |  | 2.31 ± 0.92 | 2.88 ± 0.81
LQLFHQDGTFSPVTLALFFVLYFL [CLCN6] | 2.45 ± 0.64 | 2.13 ± 0.47 |  | 
LQNQNFPYPVLFHNIFLLGGSSTS [NLN] | 2.15 ± 0.92 | 2.33 ± 0.4 |  | 
LQTGPLLGRPDSLELQRQREARKR [RSPH3] | 4.83 ± 0.2 | 5.08 ± 0.31 |  | 
LRADNAFMLLTQARLFDEPQLASL [BTBD1] | 2.46 ± 0.85 | 2.34 ± 0.47 |  | 
LRADQEKERKKREERERKRRKEEE [FAF2] | 5.435 ± 0.02 | 5.35 ± 0.31 |  | 
LRAGSSEFDSEHNLTSNEGHSLKN [RASAL3] | 4.67 ± 0.42 | 4.87 ± 0.64 |  | 
LRDPATITTLRVPVLRPMDLMVEA [PPP2R2B] | 2.85 ± 0.15 | 2.94 ± 0.37 |  | 
LRPTSVDPALRRRRRGPRNKKRGW [NOP53] | 4.64 ± 0.56 | 4.29 ± 0.23 |  | 
LRYQFSRPGPQSVPLQLSAHWQCG [FCHO1] | 2.2 ± 0.09 | 2.12 ± 0.13 |  | 
LSAANVCLDPIIYFFLCQPFREIL [P2RY14] | 3.28 ± 0.74 | 2.58 ± 0.77 |  | 
LSAGSPPVPPGWNPNSSSGKGSGG [DLX1] | 4.86 ± 0.24 | 4.72 ± 0.1 |  | 
LSALLRATPGEYSVNICGMNEHPV [SPAG8] | 2.27 ± 0.27 | 2.42 ± 0.16 |  | 

Sequence | protein stability index [1] | protein stability index [2] | protein stability index [3] | protein stability index [4]
LSKQAKFAYKDEYEKFKLYLTIIL [TMEM120A] | 2.61 ± 0.36 | 2.48 ± 0.54 |  | 
LSLQKEQLQLKIIEIEDEAEKWQK [TRIM29] | 3.87 ± 0.094 | 3.9 ± 0.43 |  | 
LSMLLTLKCEMNQMSGEPLDKLNF [ACSBG2] | 2.83 ± 0.46 | 2.29 ± 0.16 |  | 
LSPEVLRKEAYGKPVDIWACGVIL [CAMK2B] | 2.62 ± 0.71 | 2.51 ± 0.4 |  | 
LSQSPEPGRRGDPDTAPPSERPLE [RTN2] | 5.56 ± 0.24 | 5.56 ± 0.15 |  | 
LSSSIIHEIDSILGNKPYSKKDYR [KCNAB2] | 2.65 ± 0.26 | 3.24 ± 0.45 |  | 
LSSVDMRMTSSPSSIPRRDDFFRH [RAD54B] | 3.21 ± 0.28 | 3.38 ± 0.34 |  | 
LSSYISINSDTGVLYALRSFDYEQ [PCDHGA10] | 2.12 ± 0.23 | 2.27 ± 0.092 |  | 
LTCSLSFLLCARSLLRGFLLQNEF [MCOLN1] | 3.34 ± 0.44 | 2.93 ± 0.46 |  | 
LTDGHFENILADNSVNDQTKILVV [SERPINB5] | 3.09 ± 0.44 | 3.67 ± 0.29 |  | 
LTENTAENRELYIKTTLRELLVYI [PKD2L1] | 2.31 ± 0.36 | 2.45 ± 0.33 |  | 
LTGTARYMSINTHLGKEQSRRDDL [CSNK1G1] | 3.9 ± 0.31 | 4.02 ± 0.46 |  | 
LTQWKDSLVSLVLYNMDLSDDHIR [ZER1] | 2.52 ± 0.32 | 2.31 ± 0.097 |  | 
LTRPEPVHEFCAGRECQPRWETSS [ADAMTSL2] | 3.76 ± 0.15 | 3.98 ± 0.42 |  | 
LVHIVCHKKTTHKLNCDPSRIYKP [DFFB] | 2.41 ± 0.11 | 1.96 ± 0.41 |  | 
LVKQECIKEVVEKREACHCEEVKM [FAN1] | 4.54 ± 0.4 | 4.7 ± 0.23 |  | 
LVLQTSEGKALQQYPSERELRGI [TRIM9] |  |  | 3.01 ± 0.96 | 2.98 ± 0.54
LVTTHHLMVHGNERFIQYLASRNT [SNAP91] | 2.18 ± 0.17 | 2.07 ± 0.42 |  | 
LVYHPVQLSTPHAVGVLLLGLVGY [DHCR7] | 3.5 ± 0.77 | 3.08 ± 0.23 |  | 
LYPSAPILGGSGPVRKLYDDCSST [ESRRG] | 3.82 ± 0.3 | 3.72 ± 0.24 |  | 
